Laboratory results taken from article PMC9482650, “Quantitative fragmentomics allow affinity mapping of interactomes” (Nature Communications, 2022).

Columns and labels:
Test in all cases: holdup assay
Design in all cases: key: below the threshold = too weak to quantify, mostly under pKd 3.1 to 4
ARHGAP21, Q5T5U3 = biological target: T1, ARHGAP21, Q5T5U3
T1 sequence (Q5T5U3 45-169, limits assumed, looked up): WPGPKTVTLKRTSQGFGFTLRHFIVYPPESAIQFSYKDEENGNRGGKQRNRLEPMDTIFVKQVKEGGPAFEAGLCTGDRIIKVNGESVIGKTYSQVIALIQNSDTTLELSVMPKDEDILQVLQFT

LNX1_2, Q8TBB1 = biological target: LNX1_2, Q8TBB1
Sequence of LNX1_2, Q8TBB1 (Q8TBB1 371-470): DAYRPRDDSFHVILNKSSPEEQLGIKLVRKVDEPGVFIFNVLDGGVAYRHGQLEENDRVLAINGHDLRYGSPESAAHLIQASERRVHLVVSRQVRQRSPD

MAST2, Q6P0Q8 = biological target: MAST2, Q6P0Q8
Sequence of MAST2, Q6P0Q8 (Q6P0Q8 1099-1202): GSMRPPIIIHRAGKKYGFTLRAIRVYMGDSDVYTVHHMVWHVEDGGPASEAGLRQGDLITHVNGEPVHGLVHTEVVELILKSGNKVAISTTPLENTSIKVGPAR

HTRA1, Q92743 = biological target: HTRA1, Q92743
Sequence of HTRA1, Q92743 (Q92743 360-477): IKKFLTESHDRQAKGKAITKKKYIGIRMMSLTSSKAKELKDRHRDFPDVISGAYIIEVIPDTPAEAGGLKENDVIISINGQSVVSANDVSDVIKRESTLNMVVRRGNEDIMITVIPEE

IL16_4, Q14005 = biological target: IL16_4, Q14005
Sequence of IL16_4, Q14005 (Q14005 1229-1329): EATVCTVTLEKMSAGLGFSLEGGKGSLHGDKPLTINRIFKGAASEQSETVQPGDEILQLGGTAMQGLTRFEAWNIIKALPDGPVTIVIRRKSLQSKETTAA

HTRA2, O43464 = biological target: HTRA2, O43464
Sequence of HTRA2, O43464 (O43464 355-458): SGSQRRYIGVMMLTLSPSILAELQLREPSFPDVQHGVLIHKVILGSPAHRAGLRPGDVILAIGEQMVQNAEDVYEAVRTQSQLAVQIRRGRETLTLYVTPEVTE

DLG4_3, P78352 = biological target: DLG4_3, P78352
Sequence of DLG4_3, P78352 (P78352 306-403): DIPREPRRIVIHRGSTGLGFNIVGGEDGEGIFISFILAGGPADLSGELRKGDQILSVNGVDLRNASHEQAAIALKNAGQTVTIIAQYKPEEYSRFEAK

RADIL, Q96JH8 = biological target: T2, RADIL, Q96JH8
T2 sequence (Q96JH8 971-1071, limits assumed, looked up): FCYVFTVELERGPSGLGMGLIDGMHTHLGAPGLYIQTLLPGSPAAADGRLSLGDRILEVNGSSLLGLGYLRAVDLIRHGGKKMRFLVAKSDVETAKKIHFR

Inadl_6, Q8NI35 = biological target: Inadl_6, Q8NI35
Sequence of Inadl_6, Q8NI35 (Q8NI35 1058-1167): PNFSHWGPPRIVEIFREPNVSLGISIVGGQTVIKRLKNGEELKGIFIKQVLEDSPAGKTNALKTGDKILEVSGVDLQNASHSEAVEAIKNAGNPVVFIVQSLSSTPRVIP

APBA2_2, Q99767 = biological target: T3, APBA2_2, Q99767
T3 sequence (Q99767 654-744, limits assumed, looked up): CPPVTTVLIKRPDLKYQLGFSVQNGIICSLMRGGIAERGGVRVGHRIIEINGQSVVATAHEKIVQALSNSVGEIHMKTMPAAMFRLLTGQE

FRMPD4, Q14CM0 = biological target: FRMPD4, Q14CM0
Sequence of FRMPD4, Q14CM0 (Q14CM0 67-160): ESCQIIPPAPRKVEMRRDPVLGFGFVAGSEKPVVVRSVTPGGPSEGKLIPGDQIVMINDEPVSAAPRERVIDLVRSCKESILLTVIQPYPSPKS

Inadl_10, Q8NI35 = biological target: Inadl_10, Q8NI35
Sequence of Inadl_10, Q8NI35 (Q8NI35 1673-1763): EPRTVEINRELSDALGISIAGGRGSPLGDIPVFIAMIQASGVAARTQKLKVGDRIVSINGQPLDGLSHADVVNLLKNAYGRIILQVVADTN

GIPC2, Q8TF65 = biological target: GIPC2, Q8TF65
Sequence of GIPC2, Q8TF65 (Q8TF65 112-203): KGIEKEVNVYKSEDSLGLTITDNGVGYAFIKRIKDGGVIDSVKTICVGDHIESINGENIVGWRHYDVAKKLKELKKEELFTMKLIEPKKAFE

GRID2IP_2, A4D2P6 = biological target: GRID2IP_2, A4D2P6
Sequence of GRID2IP_2, A4D2P6 (A4D2P6 272-370): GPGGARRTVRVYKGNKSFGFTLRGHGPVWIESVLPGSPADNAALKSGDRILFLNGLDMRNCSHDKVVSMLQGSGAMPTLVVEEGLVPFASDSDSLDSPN

DLG4_1, P78352 = biological target: DLG4_1, P78352
Sequence of DLG4_1, P78352 (P78352 62-152): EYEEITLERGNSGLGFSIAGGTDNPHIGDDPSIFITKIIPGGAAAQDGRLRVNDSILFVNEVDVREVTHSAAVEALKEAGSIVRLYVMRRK

MAGI2_4, Q86UL8 = biological target: MAGI2_4, Q86UL8
Sequence of MAGI2_4, Q86UL8 (Q86UL8 772-865): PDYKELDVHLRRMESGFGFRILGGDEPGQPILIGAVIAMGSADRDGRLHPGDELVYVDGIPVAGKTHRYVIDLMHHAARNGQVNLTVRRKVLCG

MAGI2_5, Q86UL8 = biological target: MAGI2_5, Q86UL8
Sequence of MAGI2_5, Q86UL8 (Q86UL8 915-1017): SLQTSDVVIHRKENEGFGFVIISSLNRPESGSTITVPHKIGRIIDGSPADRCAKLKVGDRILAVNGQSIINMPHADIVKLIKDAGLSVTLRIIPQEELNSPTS

PDLIM1, O00151 = biological target: PDLIM1, O00151
Sequence of PDLIM1, O00151 (O00151 1-87): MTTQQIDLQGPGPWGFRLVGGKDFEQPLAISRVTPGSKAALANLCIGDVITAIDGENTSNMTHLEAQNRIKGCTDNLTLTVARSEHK

GORASP2, Q9H8Y8 = biological target: GORASP2, Q9H8Y8
IL16_1, Q14005 = biological target: IL16_1, Q14005
Sequence of IL16_1, Q14005 (Q14005 210-306): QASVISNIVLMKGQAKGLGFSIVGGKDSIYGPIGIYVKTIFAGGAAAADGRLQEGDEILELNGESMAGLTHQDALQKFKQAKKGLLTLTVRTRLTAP

LNX1_3, Q8TBB1 = biological target: LNX1_3, Q8TBB1
Sequence of LNX1_3, Q8TBB1 (Q8TBB1 500-596): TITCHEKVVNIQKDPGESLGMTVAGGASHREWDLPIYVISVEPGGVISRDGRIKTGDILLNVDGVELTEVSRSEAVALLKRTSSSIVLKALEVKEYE

DLG1_2, Q12959 = biological target: DLG1_2, Q12959
Sequence of DLG1_2, Q12959 (Q12959 314-412): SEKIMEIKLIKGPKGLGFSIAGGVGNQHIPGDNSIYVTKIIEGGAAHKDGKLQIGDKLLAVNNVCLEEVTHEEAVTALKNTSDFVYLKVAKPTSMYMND

LAP2, Q96RT1 = biological target: LAP2, Q96RT1
Sequence of LAP2, Q96RT1 (Q96RT1 other isoform, or with tags, fused parts or gaps): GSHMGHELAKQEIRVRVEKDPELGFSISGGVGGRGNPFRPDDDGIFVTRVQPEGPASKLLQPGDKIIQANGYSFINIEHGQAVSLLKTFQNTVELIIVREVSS

DLG4_2, P78352 = biological target: DLG4_2, P78352
Sequence of DLG4_2, P78352 (P78352 155-259): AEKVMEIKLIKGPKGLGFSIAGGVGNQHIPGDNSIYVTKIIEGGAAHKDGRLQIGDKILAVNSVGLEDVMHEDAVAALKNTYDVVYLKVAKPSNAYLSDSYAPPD

GRASP, Q7Z6J2 = biological target: GRASP, Q7Z6J2
Sequence of GRASP, Q7Z6J2 (Q7Z6J2 96-193): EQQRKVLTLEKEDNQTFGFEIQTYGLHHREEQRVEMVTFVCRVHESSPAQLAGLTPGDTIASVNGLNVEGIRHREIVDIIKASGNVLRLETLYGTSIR

GRIP2_5, Q9C0E4 = biological target: GRIP2_5, Q9C0E4
Sequence of GRIP2_5, Q9C0E4 (Q9C0E4 544-642): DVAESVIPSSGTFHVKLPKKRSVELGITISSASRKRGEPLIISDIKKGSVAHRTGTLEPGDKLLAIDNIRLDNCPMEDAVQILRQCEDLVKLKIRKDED

DLG2_3, Q15700 = biological target: DLG2_3, Q15700
Inadl_1, Q8NI35 = biological target: Inadl_1, Q8NI35
Sequence of Inadl_1, Q8NI35 (Q8NI35 113-229): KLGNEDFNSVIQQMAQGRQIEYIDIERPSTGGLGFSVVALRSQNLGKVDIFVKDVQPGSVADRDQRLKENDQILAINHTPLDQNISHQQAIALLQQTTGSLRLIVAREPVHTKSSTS

SHANK1, Q9Y566 = biological target: T4, SHANK1, Q9Y566
T4 sequence (Q9Y566 658-767, limits assumed, looked up): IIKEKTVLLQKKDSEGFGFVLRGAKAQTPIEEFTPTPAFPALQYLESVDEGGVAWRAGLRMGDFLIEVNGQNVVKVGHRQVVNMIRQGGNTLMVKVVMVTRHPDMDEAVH

MAGI3_2, Q5TCQ9 = biological target: MAGI3_2, Q5TCQ9
Sequence of MAGI3_2, Q5TCQ9 (Q5TCQ9 398-503): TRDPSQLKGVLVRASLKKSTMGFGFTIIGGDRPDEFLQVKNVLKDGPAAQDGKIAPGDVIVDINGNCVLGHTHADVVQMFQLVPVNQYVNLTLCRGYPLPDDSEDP

MAST1, Q9Y2H9 = biological target: MAST1, Q9Y2H9
Sequence of MAST1, Q9Y2H9 (Q9Y2H9 962-1065): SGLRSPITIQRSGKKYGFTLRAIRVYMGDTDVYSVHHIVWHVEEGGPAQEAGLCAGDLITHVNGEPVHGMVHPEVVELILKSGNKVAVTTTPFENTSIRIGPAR

SNTB1, Q13884 = biological target: T5, SNTB1, Q13884
T5 sequence (Q13884 107-205, limits assumed, looked up): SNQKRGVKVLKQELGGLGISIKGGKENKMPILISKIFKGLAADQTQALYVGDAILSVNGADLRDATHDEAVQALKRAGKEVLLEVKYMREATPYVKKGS

PDZD2_2, O15018 = biological target: T6, PDZD2_2, O15018
T6 sequence (O15018 329-429, limits assumed, looked up): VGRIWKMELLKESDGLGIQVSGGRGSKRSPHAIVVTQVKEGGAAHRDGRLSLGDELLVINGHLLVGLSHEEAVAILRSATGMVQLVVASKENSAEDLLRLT

[1] = plain residues with an end cap or a label only (N-terminal biotin on a linker: ado-ado)
[2] = plain residues with an end cap or a label only (N-terminal biotin on a linker: ahx)

Measured: pKd

MHIQEKGFHV [EPHA6, Q9UF33]
below the threshold: ARHGAP21, Q5T5U3; [1] | MAST2, Q6P0Q8; [1] | HTRA2, O43464; [1] | DLG4_3, P78352; [1] | Inadl_6, Q8NI35; [1] | APBA2_2, Q99767; [1] | Inadl_10, Q8NI35; [1] | GIPC2, Q8TF65; [1] | GRID2IP_2, A4D2P6; [1] | DLG4_1, P78352; [1] | MAGI2_4, Q86UL8; [1] | MAGI2_5, Q86UL8; [1] | PDLIM1, O00151; [1] | IL16_1, Q14005; [1] | LNX1_3, Q8TBB1; [1] | DLG1_2, Q12959; [1] | LAP2, Q96RT1; [1] | DLG4_2, P78352; [1] | GRASP, Q7Z6J2; [1] | GRIP2_5, Q9C0E4; [1] | DLG2_3, Q15700; [1] | Inadl_1, Q8NI35; [1] | SHANK1, Q9Y566; [1] | MAGI3_2, Q5TCQ9; [1] | SNTB1, Q13884; [1] | PDZD2_2, O15018; [1]
3.98: RADIL, Q96JH8; [1]
3.69: MAST1, Q9Y2H9; [1]
4.61: HTRA1, Q92743; [1]
3.77: LNX1_2, Q8TBB1; [1] | FRMPD4, Q14CM0; [1]
3.62: GORASP2, Q9H8Y8; [1]
3.55: IL16_4, Q14005; [1]

EKQAKGDTEF [CACYBP, Q9HB71]
below the threshold: ARHGAP21, Q5T5U3; [2] | LNX1_2, Q8TBB1; [2] | MAST2, Q6P0Q8; [2] | HTRA1, Q92743; [2] | IL16_4, Q14005; [2] | HTRA2, O43464; [2] | DLG4_3, P78352; [2] | RADIL, Q96JH8; [2] | Inadl_6, Q8NI35; [2] | APBA2_2, Q99767; [2] | Inadl_10, Q8NI35; [2] | GIPC2, Q8TF65; [2] | GRID2IP_2, A4D2P6; [2] | DLG4_1, P78352; [2] | MAGI2_4, Q86UL8; [2] | MAGI2_5, Q86UL8; [2] | PDLIM1, O00151; [2] | GORASP2, Q9H8Y8; [2] | IL16_1, Q14005; [2] | LNX1_3, Q8TBB1; [2] | DLG1_2, Q12959; [2] | LAP2, Q96RT1; [2] | DLG4_2, P78352; [2] | GRASP, Q7Z6J2; [2] | GRIP2_5, Q9C0E4; [2] | DLG2_3, Q15700; [2] | Inadl_1, Q8NI35; [2] | SHANK1, Q9Y566; [2] | MAGI3_2, Q5TCQ9; [2] | MAST1, Q9Y2H9; [2] | SNTB1, Q13884; [2] | PDZD2_2, O15018; [2]
3.55: FRMPD4, Q14CM0; [2]

SLNANEVEWF [RNF130, Q86XS8]
4.49: ARHGAP21, Q5T5U3; [1] | HTRA1, Q92743; [1]
4.59: RADIL, Q96JH8; [1]
4.7: GORASP2, Q9H8Y8; [1]
3.57: Inadl_6, Q8NI35; [1]
3.73: DLG2_3, Q15700; [1]
3.82: SHANK1, Q9Y566; [1]
4.08: GRASP, Q7Z6J2; [1]
3.51: HTRA2, O43464; [1] | MAGI2_5, Q86UL8; [1] | DLG4_2, P78352; [1]
4.32: MAST2, Q6P0Q8; [1]
below the threshold: LNX1_2, Q8TBB1; [1] | IL16_4, Q14005; [1] | DLG4_3, P78352; [1] | APBA2_2, Q99767; [1] | Inadl_10, Q8NI35; [1] | GIPC2, Q8TF65; [1] | GRID2IP_2, A4D2P6; [1] | DLG4_1, P78352; [1] | PDLIM1, O00151; [1] | IL16_1, Q14005; [1] | LNX1_3, Q8TBB1; [1] | DLG1_2, Q12959; [1] | LAP2, Q96RT1; [1] | GRIP2_5, Q9C0E4; [1] | MAGI3_2, Q5TCQ9; [1] | SNTB1, Q13884; [1]
3.5: FRMPD4, Q14CM0; [1]
3.52: Inadl_1, Q8NI35; [1]
3.96: MAST1, Q9Y2H9; [1]
3.94: MAGI2_4, Q86UL8; [1]
4.86: PDZD2_2, O15018; [1]

TRKRSGEAAV [PFKM, P08237]
4.16: MAST2, Q6P0Q8; [1]
4.08: MAST1, Q9Y2H9; [1]
3.48: LAP2, Q96RT1; [1]
4.48: MAGI3_2, Q5TCQ9; [1]
3.93: DLG4_2, P78352; [1]
3.61: GORASP2, Q9H8Y8; [1]
3.95: DLG1_2, Q12959; [1]
3.64: IL16_4, Q14005; [1]
3.63: IL16_1, Q14005; [1]
3.83: ARHGAP21, Q5T5U3; [1]
3.58: FRMPD4, Q14CM0; [1]
below the threshold: LNX1_2, Q8TBB1; [1] | HTRA1, Q92743; [1] | HTRA2, O43464; [1] | DLG4_3, P78352; [1] | RADIL, Q96JH8; [1] | Inadl_6, Q8NI35; [1] | APBA2_2, Q99767; [1] | Inadl_10, Q8NI35; [1] | GIPC2, Q8TF65; [1] | GRID2IP_2, A4D2P6; [1] | DLG4_1, P78352; [1] | MAGI2_4, Q86UL8; [1] | MAGI2_5, Q86UL8; [1] | PDLIM1, O00151; [1] | LNX1_3, Q8TBB1; [1] | GRASP, Q7Z6J2; [1] | GRIP2_5, Q9C0E4; [1] | DLG2_3, Q15700; [1] | Inadl_1, Q8NI35; [1] | SHANK1, Q9Y566; [1] | SNTB1, Q13884; [1] | PDZD2_2, O15018; [1]
